Experimental data from patent US20220298218A1 (ANTAG THERAPEUTICS, published 2022).
*1 amine or outer side, *2 acyl side, *3 side chain or, on linkers, in order; H or OH if unused. Where no end group is shown, it is not given here. Side-chain parts run from the residue outwards. [ ]: non-standard residue; d: D form. The star is where a group is joined. C18 diacid = O=C(O)CCCCCCCCCCCCCCCCC(=O)*; C16 diacid = O=C(O)CCCCCCCCCCCCCCC(=O)*; γGlu = O=C(O)[C@H](CCC(=O)[*:2])N[*:1]; Glutaryl = O=C(CCCC(=O)[*:2])[*:1]; Nle = CCCC[C@H](N)C(=O)O; AEEA = NCCOCCOCC(=O)O; Aib = CC(C)(N)C(=O)O

T1: human GIP receptor (human, UniProt P48546 22-466)
T1 sequence (looked up): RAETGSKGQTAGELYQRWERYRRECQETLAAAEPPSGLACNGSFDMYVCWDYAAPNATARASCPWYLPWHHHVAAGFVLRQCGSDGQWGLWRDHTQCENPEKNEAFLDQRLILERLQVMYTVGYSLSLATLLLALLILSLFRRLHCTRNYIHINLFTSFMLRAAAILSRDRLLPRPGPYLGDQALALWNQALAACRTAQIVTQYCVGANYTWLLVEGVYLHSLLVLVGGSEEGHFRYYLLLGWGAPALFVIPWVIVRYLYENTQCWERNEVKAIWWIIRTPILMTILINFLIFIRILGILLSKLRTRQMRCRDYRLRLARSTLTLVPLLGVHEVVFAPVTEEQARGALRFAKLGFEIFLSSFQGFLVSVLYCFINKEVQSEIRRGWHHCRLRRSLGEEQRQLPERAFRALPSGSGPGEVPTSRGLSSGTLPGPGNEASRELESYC

B1: AT675 (peptide)
peptide: [γGlu]GTFISDYSIAMDKIK(C16 diacid)QQDFVNWLLAQKPSSGAPPPS-OH
modifications: N-terminus assumed
SMILES: CC[C@H](C)[C@H](NC(=O)[C@H](CO)NC(=O)[C@H](Cc1ccc(O)cc1)NC(=O)[C@H](CC(=O)O)NC(=O)[C@H](CO)NC(=O)[C@@H](NC(=O)[C@H](Cc1ccccc1)NC(=O)[C@@H](NC(=O)CNC(=O)CC[C@H](N)C(=O)O)[C@@H](C)O)[C@@H](C)CC)C(=O)N[C@@H](C)C(=O)N[C@@H](CCSC)C(=O)N[C@@H](CC(=O)O)C(=O)N[C@@H](CCCCN)C(=O)N[C@H](C(=O)N[C@@H](CCCCNC(=O)CCCCCCCCCCCCCCC(=O)O)C(=O)N[C@@H](CCC(N)=O)C(=O)N[C@@H](CCC(N)=O)C(=O)N[C@@H](CC(=O)O)C(=O)N[C@@H](Cc1ccccc1)C(=O)N[C@H](C(=O)N[C@@H](CC(N)=O)C(=O)N[C@@H](Cc1c[nH]c2ccccc12)C(=O)N[C@@H](CC(C)C)C(=O)N[C@@H](CC(C)C)C(=O)N[C@@H](C)C(=O)N[C@@H](CCC(N)=O)C(=O)N[C@@H](CCCCN)C(=O)N1CCC[C@H]1C(=O)N[C@@H](CO)C(=O)N[C@@H](CO)C(=O)NCC(=O)N[C@@H](C)C(=O)N1CCC[C@H]1C(=O)N1CCC[C@H]1C(=O)N1CCC[C@H]1C(=O)N[C@@H](CO)C(=O)O)C(C)C)[C@@H](C)CC
B2: AT674 (peptide)
peptide: EGTFISEYSI[Aib][Nle]EKIK(C16 diacid)QQEFVEWLLAQKPSSGAPPPS-OH
modifications: N-terminus assumed
SMILES: CCCC[C@H](NC(=O)C(C)(C)NC(=O)[C@@H](NC(=O)[C@H](CO)NC(=O)[C@H](Cc1ccc(O)cc1)NC(=O)[C@H](CCC(=O)O)NC(=O)[C@H](CO)NC(=O)[C@@H](NC(=O)[C@H](Cc1ccccc1)NC(=O)[C@@H](NC(=O)CNC(=O)[C@@H](N)CCC(=O)O)[C@@H](C)O)[C@@H](C)CC)[C@@H](C)CC)C(=O)N[C@@H](CCC(=O)O)C(=O)N[C@@H](CCCCN)C(=O)N[C@H](C(=O)N[C@@H](CCCCNC(=O)CCCCCCCCCCCCCCC(=O)O)C(=O)N[C@@H](CCC(N)=O)C(=O)N[C@@H](CCC(N)=O)C(=O)N[C@@H](CCC(=O)O)C(=O)N[C@@H](Cc1ccccc1)C(=O)N[C@H](C(=O)N[C@@H](CCC(=O)O)C(=O)N[C@@H](Cc1c[nH]c2ccccc12)C(=O)N[C@@H](CC(C)C)C(=O)N[C@@H](CC(C)C)C(=O)N[C@@H](C)C(=O)N[C@@H](CCC(N)=O)C(=O)N[C@@H](CCCCN)C(=O)N1CCC[C@H]1C(=O)N[C@@H](CO)C(=O)N[C@@H](CO)C(=O)NCC(=O)N[C@@H](C)C(=O)N1CCC[C@H]1C(=O)N1CCC[C@H]1C(=O)N1CCC[C@H]1C(=O)N[C@@H](CO)C(=O)O)C(C)C)[C@@H](C)CC
B3: AT673 (peptide)
peptide: EGTFISEYSI[Aib]LEKIK(C16 diacid)QQEFVEWLLAQKPSSGAPPPS-OH
modifications: N-terminus assumed
SMILES: CC[C@H](C)[C@H](NC(=O)[C@H](CCCCN)NC(=O)[C@H](CCC(=O)O)NC(=O)[C@H](CC(C)C)NC(=O)C(C)(C)NC(=O)[C@@H](NC(=O)[C@H](CO)NC(=O)[C@H](Cc1ccc(O)cc1)NC(=O)[C@H](CCC(=O)O)NC(=O)[C@H](CO)NC(=O)[C@@H](NC(=O)[C@H](Cc1ccccc1)NC(=O)[C@@H](NC(=O)CNC(=O)[C@@H](N)CCC(=O)O)[C@@H](C)O)[C@@H](C)CC)[C@@H](C)CC)C(=O)N[C@@H](CCCCNC(=O)CCCCCCCCCCCCCCC(=O)O)C(=O)N[C@@H](CCC(N)=O)C(=O)N[C@@H](CCC(N)=O)C(=O)N[C@@H](CCC(=O)O)C(=O)N[C@@H](Cc1ccccc1)C(=O)N[C@H](C(=O)N[C@@H](CCC(=O)O)C(=O)N[C@@H](Cc1c[nH]c2ccccc12)C(=O)N[C@@H](CC(C)C)C(=O)N[C@@H](CC(C)C)C(=O)N[C@@H](C)C(=O)N[C@@H](CCC(N)=O)C(=O)N[C@@H](CCCCN)C(=O)N1CCC[C@H]1C(=O)N[C@@H](CO)C(=O)N[C@@H](CO)C(=O)NCC(=O)N[C@@H](C)C(=O)N1CCC[C@H]1C(=O)N1CCC[C@H]1C(=O)N1CCC[C@H]1C(=O)N[C@@H](CO)C(=O)O)C(C)C
B4: AT682 (peptide)
peptide: EGTFISDYSIALDKIK([AEEA-AEEA-γGlu-C18 diacid])QQDFVEWLLAQKPSSGAPPPS-OH
modifications: N-terminus assumed
SMILES: CC[C@H](C)[C@H](NC(=O)[C@H](CO)NC(=O)[C@H](Cc1ccc(O)cc1)NC(=O)[C@H](CC(=O)O)NC(=O)[C@H](CO)NC(=O)[C@@H](NC(=O)[C@H](Cc1ccccc1)NC(=O)[C@@H](NC(=O)CNC(=O)[C@@H](N)CCC(=O)O)[C@@H](C)O)[C@@H](C)CC)C(=O)N[C@@H](C)C(=O)N[C@@H](CC(C)C)C(=O)N[C@@H](CC(=O)O)C(=O)N[C@@H](CCCCN)C(=O)N[C@H](C(=O)N[C@@H](CCCCNC(=O)COCCOCCNC(=O)COCCOCCNC(=O)CC[C@H](NC(=O)CCCCCCCCCCCCCCCCC(=O)O)C(=O)O)C(=O)N[C@@H](CCC(N)=O)C(=O)N[C@@H](CCC(N)=O)C(=O)N[C@@H](CC(=O)O)C(=O)N[C@@H](Cc1ccccc1)C(=O)N[C@H](C(=O)N[C@@H](CCC(=O)O)C(=O)N[C@@H](Cc1c[nH]c2ccccc12)C(=O)N[C@@H](CC(C)C)C(=O)N[C@@H](CC(C)C)C(=O)N[C@@H](C)C(=O)N[C@@H](CCC(N)=O)C(=O)N[C@@H](CCCCN)C(=O)N1CCC[C@H]1C(=O)N[C@@H](CO)C(=O)N[C@@H](CO)C(=O)NCC(=O)N[C@@H](C)C(=O)N1CCC[C@H]1C(=O)N1CCC[C@H]1C(=O)N1CCC[C@H]1C(=O)N[C@@H](CO)C(=O)O)C(C)C)[C@@H](C)CC
B5: AT680 (peptide)
peptide: EGTFISDYSIAMDKIK([AEEA-AEEA-γGlu-C18 diacid])QQDFVNWLLAQKPSSGAPPPS-OH
modifications: N-terminus assumed
SMILES: CC[C@H](C)[C@H](NC(=O)[C@H](CO)NC(=O)[C@H](Cc1ccc(O)cc1)NC(=O)[C@H](CC(=O)O)NC(=O)[C@H](CO)NC(=O)[C@@H](NC(=O)[C@H](Cc1ccccc1)NC(=O)[C@@H](NC(=O)CNC(=O)[C@@H](N)CCC(=O)O)[C@@H](C)O)[C@@H](C)CC)C(=O)N[C@@H](C)C(=O)N[C@@H](CCSC)C(=O)N[C@@H](CC(=O)O)C(=O)N[C@@H](CCCCN)C(=O)N[C@H](C(=O)N[C@@H](CCCCNC(=O)COCCOCCNC(=O)COCCOCCNC(=O)CC[C@H](NC(=O)CCCCCCCCCCCCCCCCC(=O)O)C(=O)O)C(=O)N[C@@H](CCC(N)=O)C(=O)N[C@@H](CCC(N)=O)C(=O)N[C@@H](CC(=O)O)C(=O)N[C@@H](Cc1ccccc1)C(=O)N[C@H](C(=O)N[C@@H](CC(N)=O)C(=O)N[C@@H](Cc1c[nH]c2ccccc12)C(=O)N[C@@H](CC(C)C)C(=O)N[C@@H](CC(C)C)C(=O)N[C@@H](C)C(=O)N[C@@H](CCC(N)=O)C(=O)N[C@@H](CCCCN)C(=O)N1CCC[C@H]1C(=O)N[C@@H](CO)C(=O)N[C@@H](CO)C(=O)NCC(=O)N[C@@H](C)C(=O)N1CCC[C@H]1C(=O)N1CCC[C@H]1C(=O)N1CCC[C@H]1C(=O)N[C@@H](CO)C(=O)O)C(C)C)[C@@H](C)CC
B6: AT677 (peptide)
peptide: Glutaryl-GTFISDYSIAMDKIK(C16 diacid)QQDFVNWLLAQKPSSGAPPPS-OH
SMILES: CC[C@H](C)[C@H](NC(=O)[C@H](CO)NC(=O)[C@H](Cc1ccc(O)cc1)NC(=O)[C@H](CC(=O)O)NC(=O)[C@H](CO)NC(=O)[C@@H](NC(=O)[C@H](Cc1ccccc1)NC(=O)[C@@H](NC(=O)CNC(=O)CCCC(=O)O)[C@@H](C)O)[C@@H](C)CC)C(=O)N[C@@H](C)C(=O)N[C@@H](CCSC)C(=O)N[C@@H](CC(=O)O)C(=O)N[C@@H](CCCCN)C(=O)N[C@H](C(=O)N[C@@H](CCCCNC(=O)CCCCCCCCCCCCCCC(=O)O)C(=O)N[C@@H](CCC(N)=O)C(=O)N[C@@H](CCC(N)=O)C(=O)N[C@@H](CC(=O)O)C(=O)N[C@@H](Cc1ccccc1)C(=O)N[C@H](C(=O)N[C@@H](CC(N)=O)C(=O)N[C@@H](Cc1c[nH]c2ccccc12)C(=O)N[C@@H](CC(C)C)C(=O)N[C@@H](CC(C)C)C(=O)N[C@@H](C)C(=O)N[C@@H](CCC(N)=O)C(=O)N[C@@H](CCCCN)C(=O)N1CCC[C@H]1C(=O)N[C@@H](CO)C(=O)N[C@@H](CO)C(=O)NCC(=O)N[C@@H](C)C(=O)N1CCC[C@H]1C(=O)N1CCC[C@H]1C(=O)N1CCC[C@H]1C(=O)N[C@@H](CO)C(=O)O)C(C)C)[C@@H](C)CC

Biological target: T1, human GIP receptor
Test: cell-based or functional assay

| Binder | cAMP agonism % Emax [%] | cAMP antagonism [nM] | cAMP antagonism % inhib [%] | cAMP antagonism pIC50 |
| --- | --- | --- | --- | --- |
| B1 | 3 | 4.3 | 90 | 8.4 |
| B2 | 0 | 0.447 | 93 | 9.4 |
| B3 | 0 | 0.136 | 94 | 9.9 |
| B4 | 0 | 13.6 | 89 | 7.9 |
| B5 | 0 | 4.3 | 93 | 8.4 |
| B6 | 0 | 0.447 | 93 | 9.4 |
| [βGlu]GTFISDYSIAMDKIK(C16 diacid)QQDFVNWLLAQKPSSGAPPPS-OH [AT676] | 0 | 2.33 | 91 | 8.6 |
| EGTFISDYSIA[Nle]DKIK([AEEA-AEEA-γGlu-C18 diacid])QQDFVEWLLAQKPSSGAPPPS-OH [AT683] | 0 | 15.9 | 93 | 7.8 |
